Results published in US20200239573A1 (CRESCENDO BIOLOGICS, published 2020).
“And” between values parts separate entries of the source, which are not always exact repeats. Equal entries are not always repeated. Where two headings read alike, the source gives them in different places. One block for each binder: values may come before it.

Experiments:
[1] = target: T1, mouse PD-1 protein (mouse, UniProt Q02242 25-167); assay: HTRF binding
T1 construct: Detected with anti human-Fc cryptate, so probably Fc tagged; also called mouse PD-1 (R&D Systems cat no. 1021-PD)
T1 sequence (looked up): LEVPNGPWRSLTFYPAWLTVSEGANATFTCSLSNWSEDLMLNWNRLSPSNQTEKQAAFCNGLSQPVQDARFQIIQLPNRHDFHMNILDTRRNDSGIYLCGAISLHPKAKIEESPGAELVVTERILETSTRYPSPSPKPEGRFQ

[2] = target: T2, human PD-1 expressed on cells (CHO human PD-1 cells) (human, UniProt Q15116 21-288); assay: cell-based or functional assay
T2 sequence (Q15116 21-288): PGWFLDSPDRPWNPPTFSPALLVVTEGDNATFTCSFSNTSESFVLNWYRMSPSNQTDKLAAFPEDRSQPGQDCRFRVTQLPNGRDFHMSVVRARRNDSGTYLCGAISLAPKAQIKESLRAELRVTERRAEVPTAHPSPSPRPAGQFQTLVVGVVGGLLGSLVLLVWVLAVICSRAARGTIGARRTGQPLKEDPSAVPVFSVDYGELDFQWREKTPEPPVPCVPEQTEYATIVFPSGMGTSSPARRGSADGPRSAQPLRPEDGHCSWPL

[3] = target: T2, human PD-1 expressed on cells (CHO …); assay: cell-based or functional assay; remark: listed apart in the source
[4] = target: T3, Strep tagged recombinant human PD-1 (human, UniProt Q15116 25-170, limits assumed); assay: SPR Biacore T200, strep-tagged PD-1 amine-coupled, single cycle kinetics
T3 construct: the whole entry is named; also called strep tagged human PD-1; not shown: Strep tag
T3 sequence (Q15116 25-170 limits assumed): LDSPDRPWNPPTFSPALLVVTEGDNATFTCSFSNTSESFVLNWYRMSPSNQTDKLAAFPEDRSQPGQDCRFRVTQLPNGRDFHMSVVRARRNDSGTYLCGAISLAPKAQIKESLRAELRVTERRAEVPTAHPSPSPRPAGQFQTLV

[5] = target: T1, mouse PD-1 protein; assay: HTRF binding, 2 nM mouse PD-1
Method: (§1) e) Species Cross Reactivity Testing Purified […] were tested for their ability to bind to human PD-1 (R&D Systems cat no. 1086-PD), cynomolgus PD-1 (Acro Biosystems cat no. PD-1-05254) and mouse PD-1 (R&D Systems cat no. 1021-PD) in an HTRF Binding assay format. All reagents and serially diluted VH were prepared in assay buffer containing PBS, 0.1% BSA and 0.4M Potassium Fluoride. Samples or assay buffer (non-specific binding) were incubated with 2 nM human/cynomolgus or mouse PD-1, 1 nM Anti human-Fc Cryptate PAb (Cisbio cat. no. 61HFCKLB) and 30 nM anti His-D2 (CisBio cat no 61HISDLA) in black 384-shallow well assay plates for a minimum of 3 hours at room temperature. Time-resolved fluorescent emission at 620 nm and 665 nm was measured following excitation at 337 nm on the BMG PHERAstar plate reader. The HTRF ratio were calculated ((665 nm emission/620 nm emission)*10000) and the data corrected for (non-specific binding) to give the specific binding signal.

[6] = target: T4, recombinant human PD-1 Fc chimera (human, UniProt Q15116 25-167); assay: HTRF inhibition; strep-tagged PD-L1 vs PD-1-Fc
T4 construct: Bought protein; also called human PD-1-huFc; huPD-1-Fc; not shown: human Fc
T4 sequence (Q15116 25-167 limits assumed, change not shown): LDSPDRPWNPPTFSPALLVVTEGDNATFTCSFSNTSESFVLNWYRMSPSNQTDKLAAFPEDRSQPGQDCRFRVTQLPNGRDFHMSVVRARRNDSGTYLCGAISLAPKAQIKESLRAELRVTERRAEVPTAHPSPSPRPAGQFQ
Method: All samples and reagents were prepared in HTRF assay buffer containing PBS, 0.1% (w/v) BSA and 0.4M Potassium Fluoride. […] Total binding controls containing periplasmic extract sample buffer and non-specific binding controls containing excess untagged competitor were set up on each plate for data normalisation. Time-resolved fluorescent emission at 620 nm and 665 nm was measured following excitation at 337 nm on the BMG PHERAstar plate reader. Data was expressed as a % of the total binding control (% control) after subtraction of the background signal determined from the non-specific binding control wells.

[7] = target: T4, recombinant human PD-1 Fc chimera; assay: HTRF binding, 2 nM PD-1, anti-Fc cryptate and anti-His-D2
Method: as §1

[8] = target: T5, cynomolgus PD-1 recombinant protein (cynomolgus, UniProt B0LAJ3 25-170); assay: as above
T5 construct: Detected with anti human-Fc cryptate, so probably Fc tagged; also called cyno PD-1; cynomolgus PD-1 (Acro Biosystems cat no. PD-1-05254); not shown: The vendor's carrier tag; It is probably a human Fc, since detection used anti human-Fc cryptate
T5 sequence (B0LAJ3 entry or part of it limits assumed): as the sequence (Q15116 25-170 limits assumed) above, with D2E, P10A, V19L, T35A, Q75R, T144A counted along it
Method: as §1

[9] = target: T4, recombinant human PD-1 Fc chimera; assay: HTRF inhibition; biotinylated PD-L2-Fc vs Eu-cryptate PD-1-Fc
[10] = target: T4, recombinant human PD-1 Fc chimera; assay: SPR Biacore T200, PD-1-huFc amine-coupled, single cycle kinetics
Method: Binding kinetics of certain VH single domain antibodies binding to human PD-1-huFc were measured by surface plasmon resonance (SPR) technology using Biacore T200 instrument (GE Healthcare). Recombinant human PD-1-huFc was immobilized by standard amine coupling to CM5 sensorschip (GE Healthcare) using in range of 0.1-0.01 mg/ml solution of antigen in 10 mM sodium acetate at pH 5.5. For the reference flow cell, a blank immobilisation was carried out. Single cycle kinetics assays were used to study the interaction, a five point, three-fold dilution series of each Humabody® was made with a top concentration of 30 nM. The binding kinetics were followed by flowing the Humabody® over the chip surface in HBS EP+ buffer at a flow rate of 30 μl/min. The contact time for each of the association steps was 180 seconds and the dissociation step was varied between 1200-3600 seconds. The data was fitted to a 1:1 binding model after double reference subtraction using the Biacore T200 Evaluation software.

[11] = target: T2, human PD-1 expressed on cells (CHO …); assay: FMAT inhibition assay on CHO human PD-1 cells; blocked ligand: human Fc tagged human PD-L1
Method: (§2) All reagents and serially diluted VH were prepared in FMAT assay buffer. […] Plates were incubated for 2 hours at room temperature then fluorescence measured in the FL2 (502 nm-537 nm) and FL5 (677-800 nm) channels on the Mirrorball plate reader (TTP) following excitation at 488 nm and 640 nm. Data was expressed as a % of the total binding control (i.e. % control) after subtraction of the background signal determined from the non-specific binding control wells.

[12] = target: human PD-1 expressed on cells (CHO human PD-1 cells) (human) (UniProt Q15116); assay: cell-based or functional assay
Chain of human PD-1 expressed on cells (CHO human PD-1 cells) (human) (Q15116 21-288): as the sequence (Q15116 21-288) above

[13] = target: T2, human PD-1 expressed on cells (CHO …); assay: cell-based or functional assay; remark: listed apart in the source
[14] = target: T4, recombinant human PD-1 Fc chimera; assay: SPR Biacore T200, PD-1-Fc captured on protein G, single cycle kinetics
Method: Single cycle kinetics assays were used to study the interaction between human Fc tagged human PD-1 with Humabody® on a Biacore T200 instrument (GE Healthcare). Protein G was amine coupled to two flow cells of a CM-5 chip. Human Fc tagged recombinant human PD-1 was captured onto one of the flow cells. The other was used as the reference flow cell. A five point, three-fold dilution series of each Humabody® was made with a top concentration within the range of 50 to 150 nM. The binding kinetics were followed by flowing the Humabody® over the chip surface in HBS EP+ buffer at a flow rate of 30 μl/min. The contact time for each of the association steps was 180 seconds and the dissociation step was 3600 seconds. The data was fitted to a 1:1 binding model after double reference subtraction using the Biacore T200 Evaluation software.

[15] = target: human PD-1 on primary human CD4+ T cells (human, UniProt Q15116 21-288); assay: flow cytometry on PHA-stimulated human CD4+ T cells (live cell gate)
Chain of human PD-1 on primary human CD4+ T cells (Q15116 21-288): as above
Method: Binding of monovalent single domain antibodies and multivalent binding agents to T cells was measured using flow cytometry. […] T-cells were stimulated with 2.5 μg/ml PHA for 2-4 days in RPMI media supplemented with 10% FBS, 2 mM Glutamine, 1× Pen/Strep. Cells were transferred into 96 well plates (75000 per well), blocked for 10 mins with PBS/1% BSA, then incubated with serially diluted VH in staining buffer (PBS/1% BSA) for 1 hour at 4° C. Cells were washed with staining buffer by centrifugation then incubated with 10 μg/ml biotinylated Anti His antibody for 40 mins at 4° C. Cells were washed again then stained with Streptavidin Alexa Fluor-488 (10 μg/ml) and 1:5000 diluted Live Dead near IR stain (Molecular Probes cat no. L10119) for 30 mins at 4° C. After further washing cells were fixed and fluorescence measured by flow cytometry.

[16] = target: human PD-1 expressed on cells (CHO human PD-1 cells) (human) (UniProt Q15116); assay: FMAT inhibition assay on CHO human PD-1 cells; blocked ligand: human Fc tagged human PD-L1
[17] = target: human PD-1 expressed on cells (CHO human PD-1 cells) (human) (UniProt Q15116); assay: FMAT 1.57 epitope competition assay on CHO human PD-1 cells; competitor: 1.57-Strep tagged protein; 1 day in mouse serum
[18] = target: human PD-1 expressed on cells (CHO human PD-1 cells) (human) (UniProt Q15116); assay: FMAT 1.57 epitope competition assay on CHO human PD-1 cells; competitor: 1.57-Strep tagged protein; 0 days in mouse serum
[19] = target: human PD-1 expressed on cells (CHO human PD-1 cells) (human) (UniProt Q15116); assay: FMAT 1.57 epitope competition assay on CHO human PD-1 cells; competitor: 1.57-Strep tagged protein; 7 days in mouse serum
[20] = target: T2, human PD-1 expressed on cells (CHO …); assay: FMAT 1.57 epitope competition assay on CHO human PD-1 cells; competitor: 1.57-Strep tagged protein; 1 day in mouse serum
Method: (§3) For the epitope competition assay reagents were prepared in FMAT assay buffer. […] Plates were incubated for a minimum of 1.5 hours at room temperature then fluorescence measured in the FL2 (502 nm-537 nm) and FL5 (677-800 nm) channels on the Mirrorball plate reader (TTP) following excitation at 488 nm and 640 nm. Data was expressed as a % of the total binding control (i.e. % control) after subtraction of the background signal determined from the non-specific binding control wells.
(§4) Serum stability of VH and multivalent VH constructs was assessed by measurement of their activity following incubation for 0, 1, 4 or 7 days in mouse serum (Sigma M5905).

[21] = target: T2, human PD-1 expressed on cells (CHO …); assay: FMAT 1.57 epitope competition assay on CHO human PD-1 cells; competitor: 1.57-Strep tagged protein; 0 days in mouse serum
Method: as §3, §4

[22] = target: T2, human PD-1 expressed on cells (CHO …); assay: FMAT 1.57 epitope competition assay on CHO human PD-1 cells; competitor: 1.57-Strep tagged protein; 4 days in mouse serum
Method: as §3, §4

[23] = target: T2, human PD-1 expressed on cells (CHO …); assay: FMAT 1.57 epitope competition assay on CHO human PD-1 cells; competitor: 1.57-Strep tagged protein; 7 days in mouse serum
Method: as §3, §4

[24] = target: T2, human PD-1 expressed on cells (CHO …); assay: FMAT inhibition assay on CHO human PD-1 cells; blocked ligand: human Fc tagged human PD-L1; a separate run from Figure 4 a)
Method: as §2

binding result [1]: no binding
EC50 (M), reporter assay [2]: 1e-09 M
EC50 (M), human PD-1 reporter gene assay [3]: 1e-09 M
Kd [4]: 0.0173 nM
koff [4]: 1.54e-05 s⁻¹
kon [4]: 888000 M⁻¹ s⁻¹
B1: 1.57-4GS-1.57 (other)
chain: QVQLVESGGGLVKPGGSLRLSCAASGFTFSDNSMTWMRQAPGKGLEWVSYISSGGGVIFYADSVKGRFTISRDNAKNSLYLQMNSLRADDTAVYYCAREAPLRLGESPHDAFDISGQGTMVTVSSGGGGSGGGGSGGGGSGGGGSQVQLVESGGGLVKPGGSLRLSCAASGFTFSDNSMTWMRQAPGKGLEWVSYISSGGGVIFYADSVKGRFTISRDNAKNSLYLQMNSLRADDTAVYYCAREAPLRLGESPHDAFDISGQGTMVTVSS
notes: bivalent construct of two VH domains in one chain

binding result [5]: no binding
IC50 [6]: 1.27 nM
EC50 [7]: 4 nM
EC50 [8]: 6.3 nM
IC50 [9]: 4.9 nM
Kd [10]: 0.676 nM
koff [10]: 7.35e-05 s⁻¹
kon [10]: 109000 M⁻¹ s⁻¹
IC50 (read off the curve) [11]: ~20 nM
B2: Humabody® 1.1 (VHH)
VHH: QVQLVESGGGLVKPGGSLRLSCAASGFTFSDYTMTWMRQAPGKGLEWVSYISTGGTIKYYTDSVKGRFTISRDNAKNSLYLQMNSLRADDTAVYYCAREAPLRLGESPHDAFDIWGQGTMVTVSS
notes: human VH single domain antibody; also called VH single domain antibody 1.1; clone 1.1

EC50 (M), human PD-1 reporter gene assay [12]: 1e-08 M
EC50 (M), reporter assay [12]: 1e-08 M
Reporter Assay EC50 [13]: 8.6 nM
binding result [5]: no binding
EC50 [7]: 0.59 nM
EC50 [8]: 0.75 nM
Kd [14]: 0.0586 nM and 0.0533 nM
koff [14]: 1.99e-05 s⁻¹ and 2.32e-05 s⁻¹
kon [14]: 340000 M⁻¹ s⁻¹ and 435000 M⁻¹ s⁻¹
EC50 (read off the curve) [15]: 1 nM
EC50 (read off the curve) ([15]; record 2): ~0.2 nM
IC50 (read off the curve) [16]: 6 nM
IC50 (read off the curve) [17]: 1 nM
IC50 (read off the curve) [18]: 2 nM
IC50 (read off the curve) [19]: 3 nM
IC50 (read off the curve) [20]: ~0.7 nM
IC50 (read off the curve) [21]: ~0.4 nM
IC50 (read off the curve) [22]: ~1 nM
IC50 (read off the curve) [23]: ~2 nM
IC50 (read off the curve) [24]: ~4 nM
B3: Humabody® 1.57 (VHH)
VHH: QVQLVESGGGLVKPGGSLRLSCAASGFTFSDNSMTWMRQAPGKGLEWVSYISSGGGVIFYADSVKGRFTISRDNAKNSLYLQMNSLRADDTAVYYCAREAPLRLGESPHDAFDISGQGTMVTVSS
notes: human VH single domain antibody
